Reference: patent publication US20260103529A1 (CONFO THERAPEUTICS N V, published 2026)

Legend:
Assay in all cases: flow cytometry on HEK293T cells transiently expressing Flag-tagged receptor; receptor presence confirmed by anti-Flag detection
[1] = target: T1, human MC2R (melanocortin 2 receptor) (human, UniProt Q01718 1-297)
T1 construct: whole, on cells; Flag-tagged, transiently expressed in HEK293T cells

[2] = target: T2, human MC3R (melanocortin 3 receptor) (human, UniProt P41968 1-323)
T2 construct: whole, on cells; Flag-tagged in flow cytometry; transiently expressed in HEK293T/HEK293 cells
T2 sequence (P41968 whole entry): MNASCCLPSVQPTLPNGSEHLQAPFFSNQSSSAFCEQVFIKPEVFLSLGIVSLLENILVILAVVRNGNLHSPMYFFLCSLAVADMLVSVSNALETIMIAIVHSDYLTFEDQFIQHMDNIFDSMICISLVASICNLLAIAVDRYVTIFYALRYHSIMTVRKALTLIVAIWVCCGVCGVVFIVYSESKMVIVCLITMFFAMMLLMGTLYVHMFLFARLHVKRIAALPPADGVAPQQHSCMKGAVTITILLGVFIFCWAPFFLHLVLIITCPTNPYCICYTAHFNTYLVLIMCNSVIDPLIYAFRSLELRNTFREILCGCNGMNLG

[3] = target: T3, human MC5R (melanocortin 5 receptor) (human, UniProt P33032 1-325)
T3 construct: whole, on cells; Flag-tagged in flow cytometry; transiently expressed in HEK293T/HEK293 cells
T3 sequence (P33032 whole entry): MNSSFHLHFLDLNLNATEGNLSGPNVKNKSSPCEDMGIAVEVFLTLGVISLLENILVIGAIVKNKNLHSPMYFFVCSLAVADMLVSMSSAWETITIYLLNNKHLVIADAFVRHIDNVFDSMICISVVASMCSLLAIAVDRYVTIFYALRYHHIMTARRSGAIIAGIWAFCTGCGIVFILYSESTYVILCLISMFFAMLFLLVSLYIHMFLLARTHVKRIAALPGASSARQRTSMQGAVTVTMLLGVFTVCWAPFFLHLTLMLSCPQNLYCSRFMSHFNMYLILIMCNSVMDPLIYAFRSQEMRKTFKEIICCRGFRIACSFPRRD

[4] = target: T4, human MC1R (melanocortin 1 receptor) (human, UniProt Q01726 1-317)
T4 construct: whole, on cells; Flag-tagged in flow cytometry; transiently expressed in HEK293T/HEK293 cells; also called hMC1R
T4 sequence (Q01726 whole entry): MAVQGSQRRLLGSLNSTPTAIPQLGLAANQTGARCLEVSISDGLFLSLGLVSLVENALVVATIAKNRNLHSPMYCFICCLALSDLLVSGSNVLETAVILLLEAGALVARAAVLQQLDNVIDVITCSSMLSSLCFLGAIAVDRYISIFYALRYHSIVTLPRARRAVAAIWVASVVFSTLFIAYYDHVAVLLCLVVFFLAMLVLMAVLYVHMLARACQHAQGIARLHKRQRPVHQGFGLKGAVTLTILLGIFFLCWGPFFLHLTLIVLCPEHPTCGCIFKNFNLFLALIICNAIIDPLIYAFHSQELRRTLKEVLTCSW

Measured: binding result

T1 sequence (Q01718 whole entry): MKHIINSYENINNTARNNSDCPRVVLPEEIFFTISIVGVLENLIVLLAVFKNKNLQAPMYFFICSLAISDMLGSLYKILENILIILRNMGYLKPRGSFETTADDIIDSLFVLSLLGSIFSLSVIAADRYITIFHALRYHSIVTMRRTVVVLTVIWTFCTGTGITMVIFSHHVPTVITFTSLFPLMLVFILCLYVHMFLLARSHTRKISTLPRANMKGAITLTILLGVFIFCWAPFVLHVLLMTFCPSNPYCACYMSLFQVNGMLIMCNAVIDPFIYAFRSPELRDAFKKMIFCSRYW

B1: pN0162 (VHH)
VHH: QVQLVESGGGLVQPGGSLRLSCAASGSAFSLNVMGWYRQTPGNQRALVAEITKDGSTNYADSAKGRFTISRDNAKNTVHLQMDSLKPEDTAVYYCKARTGRIVRPLDYWGQGTQVTVSS
notes: Agonist nanobody from llama immunisation, purified from E. coli; also called pN162
no binding (tested: 1 µM): all assays above
